The values below come from publication PMC9572316, “Ultrathin Covalent Organic Framework Nanosheets/Ti3C2Tx-Based Photoelectrochemical Biosensor for Efficient Detection of Prostate-Specific Antigen”.

The data set has as its target prostate-specific antigen (PSA) (UniProt P07288 25-261). The data set is described as follows: photoelectrochemical aptasensor (aptamer immobilized on TTPA-CONs/Ti3C2Tx/GCE); 10 ng/mL PSA; photocurrent falls from 3.6 to 1.8 uA after PSA; BSA-blocked electrode; PSA incubated 120 min at 4 °C on BSA-blocked aptamer electrode; photocurrent in 0.1 M phosphate buffer pH 7.4, room temperature, no bias (Section 2.3 states Tris-HCl pH 7.4 as optimum). Conditions: protein: commercial.

Sequence of prostate-specific antigen (PSA) (P07288 25-261): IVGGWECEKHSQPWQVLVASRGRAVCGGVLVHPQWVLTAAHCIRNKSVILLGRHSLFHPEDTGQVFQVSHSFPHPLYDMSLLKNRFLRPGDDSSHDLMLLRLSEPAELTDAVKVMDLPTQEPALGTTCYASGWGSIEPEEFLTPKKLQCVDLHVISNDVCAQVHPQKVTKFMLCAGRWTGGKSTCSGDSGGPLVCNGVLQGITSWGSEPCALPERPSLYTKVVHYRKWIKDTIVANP

For ATTAAAGCTCGCCATCAAATAGC (ssDNA, 5'-NH2-C6) [PSA aptamer (NH2-C6)], the binding result is listed as “binds”.
